Consider one protein from patent US20150239954.

The target in this data set is T1, E(Edans)-AAHisAAK-(Dabsyl)-NH2 (not fully specified).
T1 chain: AAHAAK

B1: aspergillopepsin II (An01g00530) (protein)
chain: EDYSSNWAGAVLIGDGYTKVTGEFTVPSVSAGSSSSSGYGGGYGYYKNKRQSEEYCASAWVGIDGDTCETAILQTGVDFCYEDGQTSYDAWYEWYPDYAYDFNDITISEGDTIKVTVEATSKSSGSATVENLTTGQSVTHTFSGNVEGDLCETNAEWIVEDFESGDSLVAFADFGSVTFTNAEATSDGSTVGPSDATVMDIEQDGTVLTETSVSGDSVTVTYV
Take B1: the “enzyme activity in relative fluorescent units (rfu) per minute per mg of protein; cleavage of FRET peptide substrates at pH 4” value is “yields the highest rfu value for aspergillopepsin II”.
